In patent US20110262525A1, “METHODS OF TREATMENT” (SCHERING CORPORATION, priority 2006, published 2011):
Marks after values point to notes of the source that are not given here.

What was measured:
[1] = system: KT-16 xenograft (Rhabdoid); experiment: PPTP in vivo xenograft KT-16; conditions: KT-16 (Rhabdoid) xenograft, 0.5 mg per mouse ip twice weekly for four weeks
Protocol: (§1) The PPTP includes a molecularly characterized in vitro panel of cell lines (n=27) and in vivo panel of xenografts (n=61) representing most of the common types of childhood solid tumors and childhood ALL (acute lymphoblastic leukemia). LCF/HCA anti-IGF1R antibody was tested against the PPTP in vitro panel at concentrations ranging from 0.01 nM to 100 nM; and was tested against the PPTP in vivo panel at a dose of 0.5 mg per mouse administered twice weekly for four weeks via intraperitoneal injection. Three measures of antitumor activity were used: 1) response criteria modeled after the clinical setting; 2) treated-to-control (T/C) tumor volume at day 21; and 3) a time to event (4-fold increase in tumor volume) measure based on the median EFS of treated and control lines (intermediate activity required EFS (event-free survival) T/C>2, and high activity additionally required a net reduction in median tumor volume at the end of the experiment).
(§2) Stage 1 testing involved testing an agent across the entire PPTP panel of childhood cancer xenograft lines at its maximum tolerated dose (MTD) or at a dose selected based on PK/PD (pharmacokinetic/pharmacodynamic) studies using adult preclinical models.
(§3) In vivo solid tumor testing: For each xenograft line, 10 mice bearing subcutaneous (SC) tumors initiated treatment when the tumors were between 0.2-0.5 cm^3 in volume. Two perpendicular tumor diameters were measured at once weekly intervals with digital vernier calipers. Assuming tumors to be spherical, volumes were calculated from the formula (π/6)×d3, where d represented the mean diameter.
(§4) Drug: LCF/HCA was dissolved in 20mM sodium acetate pH 5 buffer containing 150 mM sodium chloride, and administered intraperitoneally twice weekly for 4 consecutive weeks at a dose of 0.5 mg per animal. […]
(§5) Median Group Response: Each individual mouse in each treatment group was assigned a response score (see Tables above) and a median score for the treatment group was calculated and then each treatment group was assigned an overall response according to the table below. […]

[2] = system: Human melanoma cells (A375-SM); experiment: Cell-Titer Glo assay, A375-SM melanoma; assay type: cell-based; conditions: 0.000256-100 nM antibody
[3] = system: BT-50 xenograft (Medulloblastoma); experiment: PPTP in vivo xenograft BT-50; conditions: BT-50 (Medulloblastoma) xenograft, 0.5 mg per mouse ip twice weekly for four weeks
Protocol: as §1, §2, §3, §4, §5

[4] = system: OS-31 xenograft (Osteosarcoma); experiment: PPTP in vivo xenograft OS-31; conditions: OS-31 (Osteosarcoma) xenograft, 0.5 mg per mouse ip twice weekly for four weeks
Protocol: as §1, §2, §3, §4, §5

[5] = system: Rh30R xenograft (ALV Rhabdomyosarcoma); experiment: PPTP in vivo xenograft Rh30R
Protocol: as §1, §2, §3
(§6) Drug: LCF/HCA was dissolved in 20mM sodium acetate pH 5 buffer containing 150 mM sodium chloride, and administered intraperitoneally twice weekly for 4 consecutive weeks at a dose of 0.5 mg per animal. The antibody was provided to each testing site in coded vials for blinded testing according the PPTP's standard operating procedures.
(§7) Median Group Response: Each individual mouse in each treatment group was assigned a response score (see Tables above) and a median score for the treatment group was calculated and then each treatment group was assigned an overall response according to the table below.
(§8) Statistical Methods: Event-free survival (EFS) distributions of each treatment group were compared to the EFS distribution of the respective control group using the exact log rank test. P-values were 2-sided & were not adjusted for multiple comparisons given the exploratory nature of this study. P-values<0.05 were considered to be significant.

[6] = system: BT-44 xenograft (Ependymoma); experiment: PPTP in vivo xenograft BT-44; design: key to EFS activity notation (high, intermediate, indeterminate): high (!); intermediate (#); indeterminate (^); conditions: BT-44 (Ependymoma) xenograft, 0.5 mg per mouse ip twice weekly for four weeks
Protocol: as §1, §2, §3, §6, §7, §8

[7] = system: KT-11 xenograft (Wilms); experiment: PPTP in vivo xenograft KT-11; conditions: KT-11 (Wilms) xenograft, 0.5 mg per mouse ip twice weekly for four weeks
Protocol: as §1, §2, §3, §4, §5

[8] = system: NB-EBc1 xenograft (Neuroblastoma); experiment: PPTP in vivo xenograft NB-EBc1; design: key to EFS activity notation (high, intermediate, indeterminate): high (!); intermediate (#); indeterminate (^)
Protocol: as §1, §2, §3, §6, §7, §8

[9] = system: OS-33 xenograft (Osteosarcoma); experiment: PPTP in vivo xenograft OS-33; conditions: OS-33 (Osteosarcoma) xenograft, 0.5 mg per mouse ip twice weekly for four weeks
Description: The PPTP includes a molecularly characterized in vitro panel of cell lines (n=27) and in vivo panel of xenografts (n=61) representing most of the common types of childhood solid tumors and childhood ALL (acute lymphoblastic leukemia).
as §2, §3
The antibody was provided to each testing site in coded vials for blinded testing according the PPTP's standard operating procedures.
as §7, §8

[10] = system: KT-10 xenograft (Wilms); experiment: PPTP in vivo xenograft KT-10; conditions: KT-10 (Wilms) xenograft, 0.5 mg per mouse ip twice weekly for four weeks
Protocol: as §1, §2, §3, §4, §5

[11] = system: A498 human kidney carcinoma tumor cells; experiment: A498 renal cell carcinoma xenograft in athymic nude mice; assay type: in vivo, mouse; conditions: 0.1 mg/injection ip two times per week, seven times starting on day 12
Protocol: Athymic nude mice were inoculated with A498 human kidney carcinoma tumor cells in the right flank, subcutaneously, along with Matrigel (1:1::cells:gel). In these experiments, 5×10^6 cells/mouse in a 1:1 mix with regular matrigel. The LCF/HCA anti-IGF1R antibody was inoculated intraperitoneally (ip) (0.1 mg/injection). Mice were dosed with antibody two times per week, by intraperitoneal injection, seven times starting on day 12. Tumor size was measured with calipers and the data was entered into the LABCAT data experimental collection and analysis program program (Innovative Programming Associates, Inc.; Princeton, N.J.). Mice were grouped with average size of 100 mm^3. Tumor size and body weight were measured twice weekly.

[12] = system: BT-39 xenograft (Glioblastoma); experiment: PPTP in vivo xenograft BT-39; conditions: BT-39 (Glioblastoma) xenograft, 0.5 mg per mouse ip twice weekly for four weeks
Protocol: as §1, §2, §3, §4, §5

[13] = system: OS-1 xenograft (Osteosarcoma); experiment: PPTP in vivo xenograft OS-1; design: key to EFS activity notation (high, intermediate, indeterminate): high (!); intermediate (#); indeterminate (^); conditions: OS-1 (Osteosarcoma) xenograft, 0.5 mg per mouse ip twice weekly for four weeks
Protocol: as §1, §2, §3, §4, §5

[14] = 0.5 mg per mouse ip twice weekly for four weeks
[15] = day 21, 0.5 mg per mouse ip twice weekly for four weeks

B1: LCF/HCA: fully human anti-IGF1R antibody comprising the mature 19D12/15H12 light chain F (LCF) and mature heavy chain A (HCA) (antibody, V domains shown)
VH: EVQLVQSGGGLVHPGGSLRLSCAASGFTFSSFAMHWVRQAPGKGLEWISVIDTRGATYYADSVKGRFTISRDNAKNSLYLQMNSLRAEDMAVYYCARLGNFYYGMDVWGQGTTVTVSS
VL: EIVLTQVPDFQSVTPKEKVTITCRASQSIGSSLHWYQQKPDQSPKLLIKYASQSLSGVPSRFSGSGSGTDFTLTINSLEAEDAAAYYCHQSSRLPHTFGGGTKVEIKRT
[1]
  EFS T/C: 1.2
  Median Final RTV: >4
[1]; day 21
  Tumor Volume T/C: 0.5
[2]
  in vitro growth of melanoma cell line: in vitro growth inhibition
[3]
  Median Final RTV: 1.4
  Overall Group Response: PD2 (1 < MS ≦ 3)
[3]; day 21
  Tumor Volume T/C: 0.94
[4]
  EFS T/C: 1.3
  Median Final RTV: >4
[4]; day 21
  Tumor Volume T/C: 0.88
[5]; [14]
  EFS T/C: 1.8
  Median Final RTV: >4
  Overall Group Response: PD2 (1 < MS ≦ 3)
[5]; [15]
  Tumor Volume T/C: 0.49
[6]
  EFS T/C: 2.6
  EFS activity notation (high, intermediate, indeterminate): #
  Median Final RTV: >4#
  Overall Group Response: PD2 (1 < MS ≦ 3)
[6]; day 21
  Tumor Volume T/C: 0.66
[7]
  EFS T/C: 1
  Median Final RTV: >4
[7]; day 21
  Tumor Volume T/C: 0.99
[8]; [14]
  EFS T/C: > 2.0
  EFS activity notation (high, intermediate, indeterminate): #
  Median Final RTV: 1.4#
  Overall Group Response: PD2 (1 < MS ≦ 3)
[8]; [15]
  Tumor Volume T/C: 0.8
[9]
  EFS T/C: 0.9
  Median Final RTV: >4
[9]; day 21
  Tumor Volume T/C: 0.79
[10]
  EFS T/C: 1.3
  Median Final RTV: >4
[10]; day 21
  Tumor Volume T/C: 0.43
[11]
  in vivo growth of renal cell carcinoma tumor: in vivo growth inhibition
[12]
  EFS T/C: 1.1
  Median Final RTV: >4
[12]; day 21
  Tumor Volume T/C: 0.87
[13]
  EFS T/C: > 1.3
  EFS activity notation (high, intermediate, indeterminate): ^
[13]; day 21
  Tumor Volume T/C: 0.16
